B1: full promoter: 5' vRNA 0-19 / 3' vRNA 1-19 (structured_RNA)
RNA 1: GCGCACCGGGGAUCCUAGGC
RNA 2: GCCUAGGAUCCACUGUGCG

Assays:
[1] = biological target: T1, LASV L protein (WT) (Lassa virus Bantou 289, UniProt A0A3S8NV63 1-2217); test: cryo-EM; PRE-[…]ON, 3.34 A; settings: protein: recombinant; tags: internal StrepII after residue 407, or C-terminal StrepII-His
[2] = biological target: T1, LASV L protein (WT); test: EMSA; settings: protein: recombinant; tags: internal StrepII after residue 407, or C-terminal StrepII-His; label: 5' Cyanine3; single strand

Binder | binding result [1] | binding result [2]
B1 | binds | –
CCACUGUGCG (ssRNA) [3' vRNA 1-10 nt] | – | binds

From PMC8639829
